The test has as its target endogenous Fc epsilon receptor I (the IgE receptor) of RBL-2H3 cells (rat) (UniProt P12371). Description: cell-based or functional assay.
Sequence of UniProt P12371 (P12371 24-245): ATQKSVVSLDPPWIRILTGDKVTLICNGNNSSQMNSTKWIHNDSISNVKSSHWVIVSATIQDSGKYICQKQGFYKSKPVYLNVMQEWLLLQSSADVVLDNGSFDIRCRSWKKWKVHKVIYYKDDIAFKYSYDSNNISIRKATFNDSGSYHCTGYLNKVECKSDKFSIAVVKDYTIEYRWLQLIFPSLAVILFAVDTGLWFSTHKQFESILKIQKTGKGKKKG

As for “mouse IgE monoclonal antibody against trinitrophenyl hapten, purified from IgELb4 hybridoma (ATCC TIB-141)”, the FLUORESCENCE (IgE + TNP-BSA, specific exocytosis); 1B7-HEXB clone, HEXB substrate 4MU-NGlc, 30 min is 28600; the FLUORESCENCE (IgE + TNP-BSA, specific exocytosis); 1C4-HEXB clone, HEXB substrate 4MU-NGlc, 30 min is 39200; the FLUORESCENCE (IgE + TNP-BSA, specific exocytosis); 1F10-HEXB clone, HEXB substrate 4MU-NGlc, 30 min amounted to 17400; the FLUORESCENCE (IgE + TNP-BSA, specific exocytosis); 2D1-SEAP clone, phosphatase substrate fluorescein diphosphate, 30 min was found to be 62900. Also, the FLUORESCENCE (IgE + TNP-BSA, specific exocytosis); RBL2H3-HEXB (whole stable population), HEXB substrate 4MU-NGlc, 30 min stood at 14100; the FLUORESCENCE (IgE + TNP-BSA, specific exocytosis); RBL2H3 cells, HEXB substrate 4MU-NGlc, 30 min turned out to be 6420; the FLUORESCENCE (IgE + TNP-BSA, specific exocytosis); RBL2H3 cells, phosphatase substrate fluorescein diphosphate, 30 min turned out to be 29900; the LU… (IgE + TNP-BSA, specific exocytosis); supernatant of 12.500 GZB-GLuc cells, coelenterazine stood at 997. Moreover, the LU… (IgE + TNP-BSA, specific exocytosis); supernatant of 25.000 GZB-GLuc cells, coelenterazine was found to be 3780; the LU… (IgE + TNP-BSA, specific exocytosis); supernatant of 50.000 GZB-GLuc cells, coelenterazine turned out to be 4710; the LU… (IgE + TNP-BSA, specific exocytosis); supernatant of 100.000 GZB-GLuc cells, coelenterazine was found to be 6280.

(Values after patent US20150260724A1.)
